The data set deals with the molecule itself. Description: SEC; Superdex 200 Increase 10/300 GL, McIlvaine buffer pH 4.6, 0.3 mL/min; purified protein; fractions tested by 4-MUF fucosidase activity (FUCA1) or H6-tag western blot (FUCA2-H6). (In general: SEC sorts molecules by how far they enter the pores of the column.)

B1: H6-tagged human tissue α-L-fucosidase 1 (FUCA1-H6) (enzyme, UniProt P04066 32-466, looked up)
chain: QPPRRYTPDWPSLDSRPLPAWFDEAKFGVFIHWGVFSVPAWGSEWFWWHWQGEGRPQYQRFMRDNYPPGFSYADFGPQFTARFFHPEEWADLFQAAGAKYVVLTTKHHEGFTNWPSPVSWNWNSKDVGPHRDLVGELGTALRKRNIRYGLYHSLLEWFHPLYLLDKKNGFKTQHFVSAKTMPELYDLVNSYKPDLIWSDGEWECPDTYWNSTNFLSWLYNDSPVKDEVVVNDRWGQNCSCHHGGYYNCEDKFKPQSLPDHKWEMCTSIDKFSWGYRRDMALSDVTEESEIISELVQTVSLGGNYLLNIGPTKDGLIVPIFQERLLAVGKWLSINGEAIYASKPWRVQWEKNTTSVWYTSKGSAVYAIFLHWPENGVLNLESPITTSTTKITMLGIQGDLKWSTDPDKGLFISLPQLPPSAVPAEFAWTIKLTGVK
notes: human tissue α-L-fucosidase FUCA1; N-glycosylated; also called H6-tagged FUCA1; H6-tagged human fucosidase; source: HT1080 cells, stably expressing, conditioned medium, purified (Ni-NTA)
On to B1, for which the binding result is recorded as “binds”.

B2: untagged human tissue α-L-fucosidase 1 (FUCA1) (enzyme, UniProt P04066 32-466, looked up)
chain: B1 chain
notes: human tissue α-L-fucosidase FUCA1; untagged, secreted into the medium; N-glycosylated; also called untagged FUCA1; hFUCA1; source: CHO-K1 cells, stably expressing, conditioned medium, purified (ammonium sulfate precipitation, strong cation exchange)
Regarding B2, the binding result is reported as “binds”.

The values above are taken from publication PMC12427801, “Deciphering α-L-Fucosidase Activity Contribution in Human and Mouse: Tissue α-L-Fucosidase FUCA1 Meets Plasma α-L-Fucosidase FUCA2” (Cells, 2025).
